Measured values taken from the nanobody polyreactivity screen of Harvey et al. (2022).

Assay: yeast display, Sf9 membrane polyspecificity reagent, FACS + sequencing; frameworks hold sequencing errors
Summary of the method: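 A synthetic nanobody library was expressed on Saccharomyces cerevisiae BJ5465 by galactose induction for 36–48 hours. The library was stained for 1 hour at 4 °C with 10% biotinylated, detergent-solubilized Sf9 membrane reagent and enriched with streptavidin microbeads before FACS. Low and high (top ~1%) gates were set on anti-HA fluorescence for expression and streptavidin fluorescence for reagent binding, and each polyreactivity label reflects the gate of origin.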

Sequence	polyreactivity (PSR sort gate)
QVQLVESGGGLVQAGGSLRLSCAASGRIFSQYAMGWYRQAPGKERELVAAISRRTGSTYYADSVKGRFTISRDNAKNTVYLQMNSLKPEDTAVYYCAAASKPWYYYWGQGTQVTVSS	high polyreactivity
QVQLVESGGGLVQAGGSLRLSCAASGSIFDYNAMGWYRQAPGKERELVAAISSGGSTYYADSVKGRFTISRDNAKNTVYLQMNSLKPEDTAVYYCAVKFWYHIYDYWGQGTQVTVSS	low polyreactivity
QVQLVESGGGLVQAGGSLRLSCAASGRIIGKYDMGWYRQAPGTERELVAAIRYNGGRTYYADSVKGRFTISRDNAKNTVYLQMNRLKPEDNAVYYCATRTYRVDPEFGYWGQGTEVTVSS	high polyreactivity
QVQLVESGGGLVQAGGSLRLSCAASGTIFTINAMGWYRQAAGKERELVAAISWSGAHTYYADSVKGRFTISRDNAKNTVFLQMNSLKPEDTAVYYCATGYNYLERNTGYFHRFDYWGQGTQVTVSS	low polyreactivity
QVQLVESGGGLVKAGGSLRLSCAASGFTFLNNTMGWYRQAPGKERELVAGITSSGDRTYYADSVKGRFTISRDNAKNTVYLQMNSLKPEDTAVYYCNADSSYPPGYDYWGQGTQVTVSS	low polyreactivity
QVQLVESGGGLVQAGGSLRLSCAASGFSYRYYAMGWYRQAPGKERELVAAISSRGGSTYYADSVKGRFTISRDNATNTVYLQMNSLKPEDTAVYYCAADHGDPGGYDYWGQGTQVTVSS	high polyreactivity
QVQLVESGGGLVQAGGSLRLSCAASGLIFVYNDMGWYRQAPGKERELVAGITGTGGNTYYADSVKGRFTISRDNAKNTVYLQMNSLKPEDTAVYYCAAQRSVFKSFRTTYVRYDYWGQGTQVTVSS	high polyreactivity
QVQLVESGGGLVQAGGSLRLSCAASGRTSLAYAMGWYRQAPGKERELVAGITSGGNTNYADSVKGRFTISCDNAKNTVYLQMNSLKPEDTAVYSCNKKKRWQWYSESVLDYLGFYSWGQGTQVTVSS	low polyreactivity
QVQLVESGGGLVQAGGSLRFSCAASGRTFYFYAMGWYRQAPGKERELVAAIRSSGGSTNYADSVKGRFTISRDNAKNTVYLQMNSLKPEDTAVYYCAAKRRAKGNYAFYYWGQGTQVTVSS	high polyreactivity
QVQLVESGGALVQAGGSLRLSCAASGRIFGGYAMGWYRQAPGTERELVAAISSGGRTYYADSVKGRFTISRDNAKNTVYLQMNSLKPEDTAVYYCNAYTRGFRLGYWGQGTQVTVSS	high polyreactivity
QVQLVESGGGLVQAGGSLRLSCAASGSIFGVNAMGWYRQAPGKERELVADITKSTGDTYADSVKGRFTISRDNAKNTVYLQMNSLKPEDTAVYYCNARFTVKQKRLYLYDYWGQGTQVTVSS	low polyreactivity
QVQLEDSGGGLVQAGGTLRLRCAASGITFGTNDMGWYRKAPGKETELVAAIDGSGETYYADSVKGRFTISRDNAKNTVYLLMNSLKPVDTAVYYCAADVIYWFSGEYDYWGQGTQVIVSS	low polyreactivity
QVQLVETGGGLVKAGGSLRLSCGASGFIFTYNAMGWYRQAPGKERELVAAISGSGGRTYYADSVKGRFTISRDNAKNTVYLQMNSLKPEDTAVYYWNRDPKSLSYGSRGFGYWGLGTQVTVSS	high polyreactivity
QDHLVESGGGLVQAGGSLRLSCAASGSPFPSYAMGWYRQAPGKERELVAAINSGGGTTYADSVQGRFTISRDKAKNTVYLQMNSLKPEDTAVYYCARGPLSWHSYVEAEYGYWGQGTQVTVSW	low polyreactivity
QVQLVESGGGLVQTGGSLRLSCAASGFIFGPYVMGWYRQAPRKERELFAAISSDGSTTYADSVKGRFTISRDNEKNTVYLQMNSLKPEDTAVYYFAAEDQQNGYDYWGQGTQVTVSS	low polyreactivity
QVQLVESGGGLVQAGGSLRLSCAASGLIFKKYTMGWYRQAPGKERELVASISKSGGSTYYADSVKGRFTISRDNAKNTVYLLMNSLKPDDTAVYYCAVGSTDRVSAQGSYFTYDYWGQGTQVNVSS	low polyreactivity
QVQLVESGGGLVQAGGSLRLSCAASGRTFTRNAMGWYRQAPGKERELVASITNGVSTNYADSVKGRFTISRDNAKNTVYLQMNSLKPEDTAVYYCNKGPLISYAYRYYQPYDYWGQGTQVTVSS	low polyreactivity
